Test results reported in patent US20150017115A1 (RAMOT AT TEL AVIV UNIVERSITY, published 2015).
Ends that are not written are not given here. CF = 5(6)-carboxyfluorescein

Biological target: T1, Neural cell adhesion molecule (NCAM, CD56) (human, UniProt P13591 20-858)
T1 construct: whole, on cells
Assay: confocal microscopy of Saos-2 cells with fluorescently labeled peptide
Protocol: Cell specificity and uptake of the fluorescently labeled peptides was monitored utilizing a Zeiss Meta LSM 510 confocal imaging system. Cells were plated on glass slides and incubated overnight. The following day cells were incubated with 100 μM of CF-NTP or CF-scrambled peptide for 30 minutes at 37° C., washed several times with PBS, fixated with 4% paraformaldehyde, stained with Hoechst stain and mounted on slides. In order to examine intracellular trafficking of the peptide, cells were incubated with the peptides in serum free medium, washed several times with cold PBS and incubated with […] AlexaFluor 594 human transferrin for 1 h at 37° C. Cells were washed several times with PBS, fixated with 4% PFA, stained with Hoechst stain and mounted on slides.
Binding of NTP (SEQ ID NO:1) to Saos-2 cells, compared to binding of sNTP (SEQ ID NO:2), was examined by confocal microscopy. FITC-labeled targeting peptides were used. […] In experiments with transferrin, peptide was seen as intracellular aggregates or vesicles, though not colocalized with transferrin.

T1 sequence (P13591 20-858): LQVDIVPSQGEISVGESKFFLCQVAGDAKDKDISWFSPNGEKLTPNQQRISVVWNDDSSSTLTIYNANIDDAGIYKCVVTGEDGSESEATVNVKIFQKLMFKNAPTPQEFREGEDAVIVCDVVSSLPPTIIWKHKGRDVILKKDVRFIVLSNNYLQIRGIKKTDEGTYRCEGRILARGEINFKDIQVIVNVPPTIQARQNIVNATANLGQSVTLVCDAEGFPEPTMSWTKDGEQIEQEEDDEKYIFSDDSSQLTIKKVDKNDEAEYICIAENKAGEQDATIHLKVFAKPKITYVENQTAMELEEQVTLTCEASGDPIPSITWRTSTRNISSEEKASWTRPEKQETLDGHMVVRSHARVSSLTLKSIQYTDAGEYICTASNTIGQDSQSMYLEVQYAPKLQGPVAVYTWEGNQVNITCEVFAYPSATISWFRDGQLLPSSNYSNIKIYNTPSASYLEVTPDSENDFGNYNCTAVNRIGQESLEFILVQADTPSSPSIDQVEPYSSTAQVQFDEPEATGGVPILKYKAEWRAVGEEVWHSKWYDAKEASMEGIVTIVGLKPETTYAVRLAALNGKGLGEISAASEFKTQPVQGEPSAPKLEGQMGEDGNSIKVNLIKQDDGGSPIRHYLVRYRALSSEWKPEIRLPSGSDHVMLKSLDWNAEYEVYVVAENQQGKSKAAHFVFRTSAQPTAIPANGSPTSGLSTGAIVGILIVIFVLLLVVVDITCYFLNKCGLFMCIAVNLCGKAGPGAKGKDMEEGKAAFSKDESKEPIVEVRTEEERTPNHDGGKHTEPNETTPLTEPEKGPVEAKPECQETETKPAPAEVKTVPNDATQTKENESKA

B1: scrambled NTP sequence (sNTP), fluorescein-labeled (peptide)
peptide: {CF}-GESDDEND
notes: also called scrambled peptide; CF-scrambled peptide
B1: no binding (tested: 100 µM).
